In article PMC4136698:

Molecular target: SNAP tag–polyproline peptide fusion (…)
Assay: pull-down

Src^Y527F (from UniProt P00523 84-533) (enzyme)
percent of kinase retained by the immobilized SH3 domain ligand: 74%
percent of total kinase retained on beads: 11%
